US20180155407A1 (Sanofi, published 2018)
Numbered stars: 1 amine (or outer) side, 2 acyl side, 3 side chain; on linkers, the order of the positions; unused ones are H or OH. Square brackets hold non-standard residues; d marks the D form. Side chains are listed from the residue outwards. Ends that are not written are not given here. * marks the point of attachment. γGlu = O=C(O)[C@H](CCC(=O)[*:2])N[*:1]; Palmitoyl = CCCCCCCCCCCCCCCC(=O)*; gAAA = not defined here; AEEA = NCCOCCOCC(=O)O; Aib = CC(C)(N)C(=O)O

What was measured:
Assay in all cases: cell-based or functional assay
human GIP receptor = target: T1, human GIP receptor (human, UniProt P48546 22-466)
T1 sequence (looked up): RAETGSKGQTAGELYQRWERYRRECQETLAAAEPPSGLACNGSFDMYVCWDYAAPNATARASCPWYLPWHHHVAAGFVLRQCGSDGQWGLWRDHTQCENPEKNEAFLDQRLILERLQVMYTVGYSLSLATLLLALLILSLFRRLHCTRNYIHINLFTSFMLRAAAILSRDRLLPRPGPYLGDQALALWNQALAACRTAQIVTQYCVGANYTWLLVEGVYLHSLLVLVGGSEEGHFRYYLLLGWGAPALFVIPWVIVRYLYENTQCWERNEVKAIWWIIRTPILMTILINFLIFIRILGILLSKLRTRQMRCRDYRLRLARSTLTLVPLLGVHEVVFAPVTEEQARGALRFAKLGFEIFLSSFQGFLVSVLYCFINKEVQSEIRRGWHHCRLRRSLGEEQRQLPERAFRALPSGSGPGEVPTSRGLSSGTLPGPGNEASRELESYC

human glucagon receptor = human glucagon receptor (human, UniProt P47871 26-477)
human GLP-1 receptor = human GLP-1 receptor (human, UniProt P43220 24-463)

Sequence of human glucagon receptor (P47871 26-477): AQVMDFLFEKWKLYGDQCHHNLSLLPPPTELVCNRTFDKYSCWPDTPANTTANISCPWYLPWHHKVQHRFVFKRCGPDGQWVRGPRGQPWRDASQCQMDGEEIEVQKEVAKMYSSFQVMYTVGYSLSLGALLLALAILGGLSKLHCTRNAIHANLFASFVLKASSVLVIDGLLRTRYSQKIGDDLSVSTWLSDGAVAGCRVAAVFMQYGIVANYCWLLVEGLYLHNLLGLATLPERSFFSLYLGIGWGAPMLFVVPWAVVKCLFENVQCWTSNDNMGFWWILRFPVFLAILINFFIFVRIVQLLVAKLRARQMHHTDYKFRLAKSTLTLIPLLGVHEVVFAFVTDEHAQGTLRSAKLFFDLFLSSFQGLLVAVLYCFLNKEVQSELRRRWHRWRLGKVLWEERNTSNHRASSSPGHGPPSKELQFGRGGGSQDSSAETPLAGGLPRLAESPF

| Binder | EC50 hGIP R (cAMP formation) (human GIP receptor) [pM] | EC50 hGlucagon R (cAMP formation) (human glucagon receptor) [pM] | EC50 hGLP-1R (cAMP formation) (human GLP-1 receptor) [pM] |
| --- | --- | --- | --- |
| H[Aib]QGTFTSDLSKLK([γGlu-γGlu-AEEA-Palmitoyl])EEQRQ[Aib]EFIEWLKA[dA]GHPS[Aib]KPPPK-NH2 (N-terminus assumed; SMILES CCCCCCCCCCCCCCCC(=O)NCCOCCOCC(=O)N[C@@H](CCC(=O)N[C@@H](CCC(=O)NCCCC[C@H](NC(=O)[C@H](CC(C)C)NC(=O)[C@H](CCCCN)NC(=O)[C@H](CO)NC(=O)[C@H](CC(C)C)NC(=O)[C@H](CC(=O)O)NC(=O)[C@H](CO)NC(=O)[C@@H](NC(=O)[C@H](Cc1ccccc1)NC(=O)[C@@H](NC(=O)CNC(=O)[C@H](CCC(N)=O)NC(=O)C(C)(C)NC(=O)[C@@H](N)Cc1c[nH]cn1)[C@@H](C)O)[C@@H](C)O)C(=O)N[C@@H](CCC(=O)O)C(=O)N[C@@H](CCC(=O)O)C(=O)N[C@@H](CCC(N)=O)C(=O)N[C@@H](CCCNC(=N)N)C(=O)N[C@@H](CCC(N)=O)C(=O)NC(C)(C)C(=O)N[C@@H](CCC(=O)O)C(=O)N[C@@H](Cc1ccccc1)C(=O)N[C@H](C(=O)N[C@@H](CCC(=O)O)C(=O)N[C@@H](Cc1c[nH]c2ccccc12)C(=O)N[C@@H](CC(C)C)C(=O)N[C@@H](CCCCN)C(=O)N[C@@H](C)C(=O)N[C@H](C)C(=O)NCC(=O)N[C@@H](Cc1c[nH]cn1)C(=O)N1CCC[C@H]1C(=O)N[C@@H](CO)C(=O)NC(C)(C)C(=O)N[C@@H](CCCCN)C(=O)N1CCC[C@H]1C(=O)N1CCC[C@H]1C(=O)N1CCC[C@H]1C(=O)N[C@@H](CCCCN)C(N)=O)[C@@H](C)CC)C(=O)O)C(=O)O) [SEQ ID NO: 19] | 7.9 | 52.2 | 1.9 |
| H[Aib]QGTFTSDLSKLK([γGlu-AEEA-gAAA-Palmitoyl])EKQRQ[Aib]EFIEWLKAGGHPS[Aib]KPPPK-NH2 (reading uncertain) [SEQ ID NO: 20] | 12.7 | 44 | 2.4 |
| H[Aib]QGTFTSDLSKLK([γGlu-AEEA-gAAA-Palmitoyl])EKQRQ[Aib]EFIEWLKA[dA]GHPS[Aib]KPPPK-NH2 (reading uncertain) [SEQ ID NO: 21] | 24.6 | 69.9 | 4.2 |
| H[Aib]QGTFTSDLSKLK([γGlu-AEEA-gAAA-Palmitoyl])EEQRQ[Aib]EFIEWLKAGGHPS[Aib]KPPPK-NH2 (reading uncertain) [SEQ ID NO: 22] | 6 | 108 | 2.1 |
| H[Aib]QGTFTSDLSKLK([γGlu-AEEA-gAAA-Palmitoyl])EEQRQ[Aib]EFIEWLKA[dA]GHPS[Aib]KPPPK-NH2 (reading uncertain) [SEQ ID NO: 23] | 2 | 64.3 | 1 |
